# Assay results taken from the RNAGym collection of RNA variant scans (doi:10.1073/pnas.2313332121).
# B1: TPR t1 (parent)
# chain: GACCAAUCUGCCCUCAGAGCUCGAGAACAUCUUCGGAUGCAGAGGAGGCAGGCUUCGGUGGCGCGAUAGCGCCAACGUCCUCAACCUCCAAUGCAUCCCACCACAUGAUGAUGCCUGAAGAGCCUUGGUUUUUUG
# Variants of: B1
# Assay: polymerase ribozyme fitness, log enrichment relative to wild type (log ratio); higher = more active; in vitro selection for triplet polymerase activity
# Procedure, shortened: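 Fitness is a logarithmic measure of how a genotype enriched relative to the wild type, with replicate averages weighted by inverse variance. The logarithm uses base 2, and enrichment came from Illumina sequencing of input and output libraries. Those libraries were PCR-built, transcribed mutants of each subunit of a heterodimeric triplet polymerase ribozyme, passed through one triplicate in vitro selection round that included frozen incubation at −7 °C, gel excision of extended constructs and streptavidin-bead capture. Genotypes were kept only if they had ≥10 input reads and ≥1 read per output.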
row,Variant,polymerase ribozyme fitness (log ratio)
1,C3U G47A C62U A105U A118G,-3.83
2,A2U C4A U33G C49G G58C A121C,-5.98
3,C3U A6U C20G A37U C72U C82U G113A A119C U129C U133A,-5.44
4,C3A C8A C12A G61A,-1.5
5,C3G C11U C97A G120C,-5.66
6,A2G U7A C70U A74C,-0.954
7,A2U C40A G128U,-4.11
8,C3U C62A C72U,-0.819
9,A2G U55G G135U,-1.42
10,C3U C72A,-0.325
11,C3U C72U,-0.173
12,C3U G77A C94G,-1.2
13,C3G G47U G48C C82G C123U,-1.92
14,C3A C124A,-0.333
15,C3G C49G,-3.17
16,A2G G60C G71U A91C G120C,-6.25
17,A2U C8U G47C G93U,-4.25
18,C3G A37U C62A A95U G120C,-3.27
19,A2U A46U G47C G71A U132C,-3.81
20,A2G G47U A84C C88U A90U A91C U133G,-2.71
21,A2U C13A C73G,-5.15
22,C3A U21A G71U,-2.65
23,C3U A50C A74C U96G,-1.84
24,C3U C56U C115U G127U,-3.57

row,Variant,polymerase ribozyme fitness (log ratio)
1,A2U G61A G127C,-1.88
2,C3A C114U,-3.65
3,C3U A6C U55C,-1.74
4,C3U C62U A74U C89G,-2.26
5,A2C U59C C73A U131A,-2.5
6,C3A C72A G110U,-3.62
7,A2U C56A G120C,-2.63
8,C3G C11G C97G C114A,-4.68
9,A2U G113U,-4.15
10,A2U G113C,-3.73
11,A2G C28U G110U,-2.63
12,C3A G48A C72U A84G,-1.58
13,A2U C13U G77C,-1.85
14,A2U C15G,-4.66
15,A2U A50U,-3.14
16,A2G U55G G71A A95U,-1.12
17,C3A C56G G61A U81A U131C,-4.05
18,C3A C28U G63C,-3.87
19,A2G A27U C79G C104U,-4.76
20,C3U C22A A74U G77A U106C C114A,-4.34
21,C3G C40G C72U A121G U130G,-0.331
22,C3U C13U C34U G69U C85U,-2.76
23,A2G C13G C86U C123A U133C,0.0468
24,C3A G25U G58C U59G C97U C123A G135U,-6.86

row,Variant,polymerase ribozyme fitness (log ratio)
1,C3U G36A A50C G120U,-1.14
2,A2U A16U U96A G128A,-4.83
3,A2G A74U C89G U112A,-1.32
4,C3U C49A G63A C80U G93A,-5.66
5,C3G C72G,-2.06
6,C3U G10U A26U U55C G69U U112C,-3.58
7,C3G A50C C73A A95U,-2.64
8,C3G C13U C56A,-2.3
9,C3A C8G A37G G93A,-0.343
10,C3A C8A C70G,-3.71
11,C3A G44C C53U C123A,-1.67
12,C3A C12A G58A A83C,-2.19
13,C3G C11G G19U G63A G120A,-5.7
14,A2G G19A A43G C80U C104U,-4.42
15,C3A C13U C62U G113U,-4.41
16,C3U U33G C53U U54A C73U U87A C124A,-4.16
17,C3U G45U U55A G60A U81A,-1.52
18,C3G U9C C13A C70G C89A U96C C101A G117C,-5.88
19,A2G C8A G51U U59G,-2.18
20,A2U C53G C88G,-3.42
21,A2U G10U A100C,-4.35
22,A2U U14G U106G G120A C124G,-3.26
23,C3U G39C G117U U133G,-4.12
24,A2U A37U C62U C72U U78A C124G,-0.559

row,Variant,polymerase ribozyme fitness (log ratio)
1,A2C U7G G57U G60U,-0.82
2,A2G G42U G69A C123A,-5.6
3,C3A C102A U106C G120U C124U,-2.57
4,C3A C8G C88U A90C G110A U132A,-2.77
5,A2G G45U C82A,-2.5
6,C3U U9G G45A G51U C53G C123A,-5.27
7,C3A U9G G17C U54G G69U A105C G117A,-5.55
8,A2U C12U G110A U129C,-1.58
9,A2U C72U G110A,-4.59
10,C3A C104U,-0.516
11,A2G C70U U96A,-1.87
12,A2G C13U A46U C86A G113U G120U C123G,-4.13
13,A2G C12U,-0.378
14,C3U C53A C56A G69U,-0.204
15,A2G U9G G10U A27C C56G,-3.86
16,C3G A43U,-3.88
17,C3U C73G A83G,-2.1
18,C3A G45U G57U C82U C104A C123A,-4.01
19,C3A G71C C114G,-4.21
20,C3A U78A,-1.96
21,C3A U78C,-0.717
22,A2G C12U C56A C97U C124U,0.631
23,C3U C12U A46G A50G C101A C104U,-0.987
24,C3U G93C,-1.09

row,Variant,polymerase ribozyme fitness (log ratio)
1,A2G G19U G120U,-2.98
2,C3A C4G G10A G61U A74C C123G,-4.94
3,A2G G71U,-0.153
4,C3U A119G,0.367
5,C3U A16U G71A,-2.38
6,A2U C88G U130A,-2.84
7,A2G A68G U106G U125G,-5.29
8,A2G C12U C101U A105U C115A,-1.02
9,A2G C20U,-1.26
10,C3U A91U G93C G113C G135U,-3.84
11,C3A C53U U55A C73A G117A,-4.29
12,C3G G60C C86A,-2.81
13,A2G G63C,-0.0882
14,A2C U14G U54G U96G A100U G117A U126A U129G,-5.8
15,A2U C82U C86G A121G,-0.832
16,C3U G45C,-2.34
17,C3A G42U G48U G52U C64U C86U G113U U133G,-7.08
18,C3U G93C U112A C123G,-1.14
19,C3U A27G G135U,-5.83
20,A2U A108G,-3.51
21,A2G A18U C28G C124A U130C,-5.83
22,A2G A29G G71A A90C,-3.65
23,C3U G44C G60A,-0.897
24,C3A G39C C72U U92A A111G,-5.51

row,Variant,polymerase ribozyme fitness (log ratio)
1,A2G C13U,0.291
2,A2G A18C A91C,-2.93
3,A2U A6G C12U A24G C56A C97U,-3.05
4,C3U A83U,-0.257
5,C3A A66U G69U,-1.08
6,C3A G120A U130C,0.403
7,C3U C11U C13G G63C U116C,-4.43
8,C3U G71C G77A,-5.92
9,A2U C115G,-3.95
10,C3A C13A C20A A66G G117A,-5.73
11,C3U A50G U55G G63A,-1.45
12,A2G U9C C13U A18U C56G A95G,-1.78
13,A2U G60A A91G C124U,-3.61
14,C3G A46U C72A G113C,-3.77
15,A2U G35U G69U C79U G120A G128A,-3.99
16,A2C U7A G10U C98U,-4.07
17,A2U A91C G120U,-3.98
18,C3U C13G A90U,-1.11
19,A2G C62U A83G,-1.82
20,A2G C97U G117A A119G,-0.0934
21,C3U C11A U78A,-2.75
22,C3G G47C G52A U87A C124G,-4.41
23,C3G G128C,-0.539
24,C3G C4U A83U G122U C123U,-0.882

row,Variant,polymerase ribozyme fitness (log ratio)
1,C3U C34A C73A,-2.99
2,C3U C72U U106C,-1.21
3,A2G C20G G113A,-1.61
4,C3G C12G,-0.885
5,A2U G110U,-2.47
6,A2U G58C C72G C88U,-4.39
7,C3U A41G C102A G120A,-3.46
8,C3A C20A C49G A50C G61U,-5.32
9,A2G G63C U116A,-4.03
10,C3U C56U G69C C76G C115U G127U,-4.79
11,A2C G110A A121C,-2.66
12,C3G C22A G69A C124G G128C,-4.83
13,C3G G48C U87G U130C,-1.16
14,A2U G42A A83U C88U,-5.05
15,C3G G42C G44U G63U C123A G128C,-3.73
16,C3A C4U C72U C123G,-0.302
17,A2G G35C C124A,-4.18
18,C3A C64U G71A G110U U129G,-6.8
19,C3U G19A C70U A111G G120U,-3.71
20,A2G C82A A111U,-4.1
21,C3U G10A G45U A74C U81A,-2.98
22,C3G C56U U92G C123A,-3.5
23,C3U C40U G60U,0.0261
